Biological target: T1, polycystin-2 L677A N681A, HA-tagged (human, UniProt Q13563 1-968, L677A | N681A)
T1 sequence (looked up): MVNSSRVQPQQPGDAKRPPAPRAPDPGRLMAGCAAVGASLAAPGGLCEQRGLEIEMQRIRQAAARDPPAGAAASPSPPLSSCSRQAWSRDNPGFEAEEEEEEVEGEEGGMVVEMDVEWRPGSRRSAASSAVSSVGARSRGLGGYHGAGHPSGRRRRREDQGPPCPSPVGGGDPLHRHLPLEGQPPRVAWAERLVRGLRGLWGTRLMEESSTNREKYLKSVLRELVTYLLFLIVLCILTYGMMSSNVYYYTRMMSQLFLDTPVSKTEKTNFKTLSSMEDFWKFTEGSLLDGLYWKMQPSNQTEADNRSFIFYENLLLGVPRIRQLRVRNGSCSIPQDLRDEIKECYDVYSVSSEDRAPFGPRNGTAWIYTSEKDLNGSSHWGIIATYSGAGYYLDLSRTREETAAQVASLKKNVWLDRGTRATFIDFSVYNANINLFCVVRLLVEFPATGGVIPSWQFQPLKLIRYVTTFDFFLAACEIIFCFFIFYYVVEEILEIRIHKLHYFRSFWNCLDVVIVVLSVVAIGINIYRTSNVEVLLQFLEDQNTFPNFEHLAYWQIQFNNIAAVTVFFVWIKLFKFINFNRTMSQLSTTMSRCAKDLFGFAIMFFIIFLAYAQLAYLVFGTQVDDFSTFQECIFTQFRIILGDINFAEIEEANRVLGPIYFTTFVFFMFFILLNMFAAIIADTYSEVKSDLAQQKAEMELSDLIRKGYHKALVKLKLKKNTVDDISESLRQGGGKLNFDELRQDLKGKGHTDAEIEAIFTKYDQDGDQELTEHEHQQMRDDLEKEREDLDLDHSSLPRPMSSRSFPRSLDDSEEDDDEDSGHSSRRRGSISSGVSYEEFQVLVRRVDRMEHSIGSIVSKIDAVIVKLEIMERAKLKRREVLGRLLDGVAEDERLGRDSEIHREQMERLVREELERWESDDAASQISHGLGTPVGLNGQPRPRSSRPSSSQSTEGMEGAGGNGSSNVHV
Assay: cell-based or functional assay

PC2/PC1 molar ratio of injected cRNA (2.5 pmol PC2 AA, 0.77 pmol PC1-CTF AAA) at which the shift of the reversal potential saturated: 3.2 PC2 per PC1 (molar ratio of cRNA)
B1: C-terminal fragment of polycystin-1 R4100A R4107A H4111A (PC1-CTF AAA), V5-tagged (domain or fragment, human, UniProt P98161 3049-4303, looked up)
chain: TAFGASLFVPPSHVRFVFPEPTADVNYIVMLTCAVCLVTYMVMAAILHKLDQLDASRGRAIPFCGQRGRFKYEILVKTGWGRGSGTTAHVGIMLYGVDSRSGHRHLDGDRAFHRNSLDIFRIATPHSLGSVWKIRVWHDNKGLSPAWFLQHVIVRDLQTARSAFFLVNDWLSVETEANGGLVEKEVLAASDAALLRFRRLLVAELQRGFFDKHIWLSIWDRPPRSRFTRIQRATCCVLLICLFLGANAVWYGAVGDSAYSTGHVSRLSPLSVDTVAVGLVSSVVVYPVYLAILFLFRMSRSKVAGSPSPTPAGQQVLDIDSCLDSSVLDSSFLTFSGLHAEQAFVGQMKSDLFLDDSKSLVCWPSGEGTLSWPDLLSDPSIVGSNLRQLARGQAGHGLGPEEDGFSLASPYSPAKSFSASDEDLIQQVLAEGVSSPAPTQDTHMETDLLSSLSSTPGEKTETLALQRLGELGPPSPGLNWEQPQAARLSRTGLVEGLRKRLLPAWCASLAHGLSLLLVAVAVAVSGWVGASFPPGVSVAWLLSSSASFLASFLGWEPLKVLLEALYFSLVAKRLHPDEDDTLVESPAVTPVSARVPRVRPPHGFALFLAKEEARKVKRLHGMLRSLLVYMLFLLVTLLASYGDASCHGHAYRLQSAIKQELHSRAFLAITRSEELWPWMAHVLLPYVHGNQSSPELGPPRLRQVRLQEALYPDPPGPRVHTCSAAGGFSTSDYDVGWESPHNGSGTWAYSAPDLLGAWSWGSCAVYDSGGYVQELGLSLEESRDRLRFLQLHNWLDNRSRAVFLELTRYSPAVGLHAAVTLRLEFPAAGRALAALSVRPFALRRLSAGLSLPLLTSVCLLLFAVHFAVAEARTWHREGRWRVLRLGAWARWLLVALTAATALVRLAQLGAADRQWTRFVRGRPRRFTSFDQVAQLSSAARGLAASLLFLLLVKAAQQLRFVRQWSVFGKTLCRALPELLGVTLGLVVLGVAYAQLAILLVSSCVDSLWSVAQALLVLCPGTGLSTLCPAESWHLSPLLCVGLWALRLWGALALGAVILAWRYAALRGELYRPAWEPQDYEMVELFLRRLRLWMGLSKVKEFRHKVRFEGMEPLPSRSSRGSKVSPDVPPPSAGSDASHPSTSSSQLDGLSVSLGRLGTRCEPEPSRLQAVFEALLTQFDRLNQATEDVYQLEQQLHSLQGRRSSRAPAGSSRGPSPGLRPALPSRLARASRGVDLATGPSRTPLRAKNKVHPSST

— paper PMC12183636, “Ion channel function of polycystin‐2/polycystin‐1 heteromer revealed by structure‐guided mutagenesis” (Febs Letters, 2025)
